The record followed here is patent US20230310603A1 (BEIJING NEUROSURGICAL INSTITUTE, published 2023).

The labels stand for the following.
T1: CD133 on CD44- and CD133-positive glioma stem cells GSC20 (UniProt O43490 20-865, limits assumed)
T1 sequence (looked up): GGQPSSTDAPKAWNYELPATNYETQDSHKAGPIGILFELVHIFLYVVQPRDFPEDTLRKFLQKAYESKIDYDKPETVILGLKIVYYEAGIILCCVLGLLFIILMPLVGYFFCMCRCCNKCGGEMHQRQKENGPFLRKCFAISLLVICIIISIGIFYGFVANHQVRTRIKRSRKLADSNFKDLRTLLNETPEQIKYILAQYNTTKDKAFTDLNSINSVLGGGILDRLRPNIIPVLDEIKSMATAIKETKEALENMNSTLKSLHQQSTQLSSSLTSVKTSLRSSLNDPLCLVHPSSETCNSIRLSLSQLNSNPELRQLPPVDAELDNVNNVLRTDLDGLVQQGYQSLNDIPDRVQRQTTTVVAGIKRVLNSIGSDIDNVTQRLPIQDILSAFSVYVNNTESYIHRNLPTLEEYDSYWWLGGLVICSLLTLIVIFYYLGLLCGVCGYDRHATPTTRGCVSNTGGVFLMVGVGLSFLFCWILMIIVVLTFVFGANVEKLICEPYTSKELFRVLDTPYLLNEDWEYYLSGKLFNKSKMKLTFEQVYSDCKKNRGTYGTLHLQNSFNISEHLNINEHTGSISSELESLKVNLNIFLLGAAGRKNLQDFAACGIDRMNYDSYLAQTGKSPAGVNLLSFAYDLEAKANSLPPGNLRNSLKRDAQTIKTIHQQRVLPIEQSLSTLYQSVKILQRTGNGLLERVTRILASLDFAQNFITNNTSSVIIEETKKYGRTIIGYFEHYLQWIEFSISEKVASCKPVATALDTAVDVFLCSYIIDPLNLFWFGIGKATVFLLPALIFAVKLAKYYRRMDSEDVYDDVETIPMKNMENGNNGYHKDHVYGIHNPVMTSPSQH

B1: fusion protein shown in SEQ ID NO. 3 (anti-CD133 single-chain antibody, CD28, CD3), expressed on CAR-T 1 cells (other)
chain: QVQLVQSGAEVKKPGASVKVSCKASGYTFTDFEMHWVRQAPGQGLEWMGDIDPGTGDTAYNLKFKGRVTMTTDTSTSTAYMELRSLRSDDTAVYYCALGAFVYWGQGTLVTVSSGSTSGGGSGGGSGGGGSSDVVMTQSPLSLPVTPGEPASISCRSSQSLANSYGNTYLSWYLQKPGQSPQLLIYGISNRFSGVPDRFSGSGSGTDFTLKISRVEAEDVGVYYCLQGTHQPYTFGQGTKLEIKTTTPAPRPPTPAPTIASQPLSLRPEACRPAAGGAVHTRGLDFACDIYIWAPLAGTCGVLLLSLVITLYCRSKRSRLLHSDYMNMTPRRPGPTRKHYQPYAPPRDFAAYRSRVKFSRSADAPAYKQGQNQLYNELNLGRREEYDVLDKRRGRDPEMGGKPRRKNPQEGLYNELQKDKMAEAYSEIGMKGERRRGKGHDGLYQGLSTATKDTYDALHMQALPPR
B2: fusion protein shown in SEQ ID NO. 4 (anti-CD133 single-chain antibody, CD28, truncated body of IL7Rα, CD3), expressed on CAR-T 2 cells (other)
chain: QVQLVQSGAEVKKPGASVKVSCKASGYTFTDFEMHWVRQAPGQGLEWMGDIDPGTGDTAYNLKFKGRVTMTTDTSTSTAYMELRSLRSDDTAVYYCALGAFVYWGQGTLVTVSSGSTSGGGSGGGSGGGGSSDVVMTQSPLSLPVTPGEPASISCRSSQSLANSYGNTYLSWYLQKPGQSPQLLIYGISNRFSGVPDRFSGSGSGTDFTLKISRVEAEDVGVYYCLQGTHQPYTFGQGTKLEIKTTTPAPRPPTPAPTIASQPLSLRPEACRPAAGGAVHTRGLDFACDIYIWAPLAGTCGVLLLSLVITLYCRSKRSRLLHSDYMNMTPRRPGPTRKHYQPYAPPRDFAAYRSKKRIKPIVWPSLPDHKKTLEHLCKKPRKNLNVSFNPESFLDCQIHRVDDIQARDEVEGFLQDTFPQQLEESEKQRLLGSNQEEAYVTMSSFYQNQRVKFSRSADAPAYKQGQNQLYNELNLGRREEYDVLDKRRGRDPEMGGKPRRKNPQEGLYNELQKDKMAEAYSEIGMKGERRRGKGHDGLYQGLSTATKDTYDALHMQALPPR
B3: fusion protein shown in SEQ ID NO. 5 (anti-CD133 single-chain antibody, CD28, CD3, T2A, anti-TIM3 single-chain antibody), expressed in CAR-T 3 cells (other)
chain: QVQLVQSGAEVKKPGASVKVSCKASGYTFTDFEMHWVRQAPGQGLEWMGDIDPGTGDTAYNLKFKGRVTMTTDTSTSTAYMELRSLRSDDTAVYYCALGAFVYWGQGTLVTVSSGSTSGGGSGGGSGGGGSSDVVMTQSPLSLPVTPGEPASISCRSSQSLANSYGNTYLSWYLQKPGQSPQLLIYGISNRFSGVPDRFSGSGSGTDFTLKISRVEAEDVGVYYCLQGTHQPYTFGQGTKLEIKTTTPAPRPPTPAPTIASQPLSLRPEACRPAAGGAVHTRGLDFACDIYIWAPLAGTCGVLLLSLVITLYCRSKRSRLLHSDYMNMTPRRPGPTRKHYQPYAPPRDFAAYRSRVKFSRSADAPAYKQGQNQLYNELNLGRREEYDVLDKRRGRDPEMGGKPRRKNPQEGLYNELQKDKMAEAYSEIGMKGERRRGKGHDGLYQGLSTATKDTYDALHMQALPPREGRGSLLTCGDVEENPGPMTNKCLLQIALLLCFSTTALSQVQLQQSGPGLVKPSHTLSLTCTVSGGSISSGGYYWSWTRQHPGMGLEWIGYISYSGSIYYTPSLKSRLTISVDTSKNQFSLKLSSVTAADTAVYYCASLDSWGSNRDYWGQGTLVTVSSGGGGSEIVLTQSPATLSLSPGERATLSCRASQSVSSYLAWYQQKPGQAPRLLIYDASNRATGIPARFSGSGSGTDFTLTISSLEPEDFAVYYCQQRSNWPLTFGGGTKVEIK
B4: fusion protein shown in SEQ ID NO. 6 (anti-CD133 single-chain antibody, CD28, truncated body of IL7Rα, CD3, T2A, anti-TIM3 single-chain antibody), expressed in … (other)
chain: QVQLVQSGAEVKKPGASVKVSCKASGYTFTDFEMHWVRQAPGQGLEWMGDIDPGTGDTAYNLKFKGRVTMTTDTSTSTAYMELRSLRSDDTAVYYCALGAFVYWGQGTLVTVSSGSTSGGGSGGGSGGGGSSDVVMTQSPLSLPVTPGEPASISCRSSQSLANSYGNTYLSWYLQKPGQSPQLLIYGISNRFSGVPDRFSGSGSGTDFTLKISRVEAEDVGVYYCLQGTHQPYTFGQGTKLEIKTTTPAPRPPTPAPTIASQPLSLRPEACRPAAGGAVHTRGLDFACDIYIWAPLAGTCGVLLLSLVITLYCRSKRSRLLHSDYMNMTPRRPGPTRKHYQPYAPPRDFAAYRSKKRIKPIVWPSLPDHKKTLEHLCKKPRKNLNVSFNPESFLDCQIHRVDDIQARDEVEGFLQDTFPQQLEESEKQRLLGSNQEEAYVTMSSFYQNQRVKFSRSADAPAYKQGQNQLYNELNLGRREEYDVLDKRRGRDPEMGGKPRRKNPQEGLYNELQKDKMAEAYSEIGMKGERRRGKGHDGLYQGLSTATKDTYDALHMQALPPREGRGSLLTCGDVEENPGPMTNKCLLQIALLLCFSTTALSQVQLQQSGPGLVKPSHTLSLTCTVSGGSISSGGYYWSWTRQHPGMGLEWIGYISYSGSIYYTPSLKSRLTISVDTSKNQFSLKLSSVTAADTAVYYCASLDSWGSNRDYWGQGTLVTVSSGGGGSEIVLTQSPATLSLSPGERATLSCRASQSVSSYLAWYQQKPGQAPRLLIYDASNRATGIPARFSGSGSGTDFTLTISSLEPEDFAVYYCQQRSNWPLTFGGGTKVEIK

In the assay the target is T1, CD133 on CD44- and CD133-positive …. As to the kind of experiment: cell-based or functional assay.
B1: the “Lysis rate of glioma stem cells GSC20 by CAR-T cells (LDH release, 4 h), effect-target ratio 1:1” value was found to be 6.53%; the “Lysis rate of glioma stem cells GSC20 by CAR-T cells (LDH release, 4 h), effect-target ratio 2:1” value turned out to be 26%; the “Lysis rate of glioma stem cells GSC20 by CAR-T cells (LDH release, 4 h), effect-target ratio 3:1” value is 33.5%; the “Lysis rate of glioma stem cells GSC20 by CAR-T cells (LDH release, 4 h), effect-target ratio 5:1” value was 41.4%.
Turning to B2, the “Lysis rate of glioma stem cells GSC20 by CAR-T cells (LDH release, 4 h), effect-target ratio 1:1” value amounted to 16.3%; the “Lysis rate of glioma stem cells GSC20 by CAR-T cells (LDH release, 4 h), effect-target ratio 2:1” value was found to be 28%; the “Lysis rate of glioma stem cells GSC20 by CAR-T cells (LDH release, 4 h), effect-target ratio 3:1” value was determined as 39.6%; the “Lysis rate of glioma stem cells GSC20 by CAR-T cells (LDH release, 4 h), effect-target ratio 5:1” value stood at 43.4%.
The matching figures for B3: 16.9%, 20.3%, 35.3% and 49.5%.
The like results for B4 were, in that order, 31.4%, 36.8%, 69.6% and 87.2%.
